Source: US20050112564A1 (published 2005)
No end group written: not given here. *: point of attachment. FITC = O=C1OC2(c3ccc(O)cc3Oc3cc(O)ccc32)c2ccc(NC(=S)*)cc21

Target: T1, avidin (UniProt P02701 25-152)
T1 construct: also called avidin of a bar code 01
Assay: FITC-peptide incubated with protein-coated bar-coded carriers; fluorescence read in flow tube
Protocol: Carriers of 15 mm in length having a bar code 01 or 02 were prepared by using polymethylmethacrylate fibers as a raw material and introducing carboxyl groups on the surface thereof in the same manner as in Example 1. As in Example 1, 50 carriers having a bar code 01 were dispersed in 10 ml HEPES buffer, 100 μmol hydroxysuccinimide was added thereto, followed by the addition of 100 μmol WSC to succinimidate carboxyl groups, and after washing the carriers with the same buffer, 10 ml of a buffer containing 1 μmol/ml avidin was immediately added thereto to immobilize avidin on the carriers. The carriers were subjected to blocking in 1% BSA solution, and washed with distilled water to prepare carriers to which avidin is bound and which have a bar code 01.
Similarly, a FITC-labeled polypeptide having the […] shown in SEQ ID NO: 7 which consists of 15 amino acids without containing avidin-binding peptide sequence and having FITC at the amino-terminus was synthesized and dissolved in PBS containing 0.1% BSA at a concentration of 2 nmol/ml to prepare a test sample solution.
An apparatus shown in FIGS. 1 and 2 was prepared, and the bar code and fluorescence were detected while passing the solutions prepared in (3) above through a hollow tube in the detection device. As the bar code reader, a hand laser scanner SL-114 (product of Nichiei Intec) was used. […]

T1 sequence (P02701 25-152 limits assumed): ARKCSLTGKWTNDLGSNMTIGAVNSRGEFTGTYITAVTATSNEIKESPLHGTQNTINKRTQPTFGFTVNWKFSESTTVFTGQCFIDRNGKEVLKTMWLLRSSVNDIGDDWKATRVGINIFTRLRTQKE

{FITC}-ISFENTWLWTSPFSS [FITC-labeled polypeptide of SEQ ID NO: 7 (15 amino acids without avidin-binding peptide sequence)]
binding result: no binding
